From publication PMC10965980

Target: mGluR1 (UniProt P97772)
Test: anti-Homer1 IP, mGluR1 western blot
Details: reference: wild-type Homer1; sites S117

binding against the reference: stronger
Substance: Homer1 (from UniProt Q9Z2Y3) Homer1 S117A
